The values below come from patent publication US20230331803A1, “CO-AGONISTS OF THE GLP-1 AND AMYLIN RECEPTORS” (priority 2020, published 2023).

Like-named read-outs stand apart in the source and are kept apart here. Starred links: 1 amine or outer side, 2 acyl side, 3 side chain; linkers in the order of their positions; H or OH if unused. Non-standard residues stand in square brackets, D forms with d. Groups on a side chain read outwards from the residue. *: point of attachment. C18 diacid = O=C(O)CCCCCCCCCCCCCCCCC(=O)*; γGlu = O=C(O)[C@H](CCC(=O)[*:2])N[*:1]; AEEA = NCCOCCOCC(=O)O; Aib = CC(C)(N)C(=O)O

For series [1] the following is noted: measured in humans (Meier et al., Diabetes, 2004); cited from earlier work.
The conditions of series [2]: endogenous hormone; cited from earlier work.
Series [3] concerns the target T1, human amylin receptor (hAmyR3) (Homo sapiens, UniProt O60896+P30988).
T1 construct: host or cells: BHK cells (Hollex-1 line: human calcitonin receptor (a) + CRE-Luc), further transfected with human RAMP3
T1 sequence (O60896 whole entry, looked up): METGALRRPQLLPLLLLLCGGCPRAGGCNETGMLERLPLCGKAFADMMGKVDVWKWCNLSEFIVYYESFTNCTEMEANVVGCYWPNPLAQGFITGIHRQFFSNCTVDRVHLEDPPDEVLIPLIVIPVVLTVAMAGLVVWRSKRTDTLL
T1 sequence (P30988 whole entry, looked up): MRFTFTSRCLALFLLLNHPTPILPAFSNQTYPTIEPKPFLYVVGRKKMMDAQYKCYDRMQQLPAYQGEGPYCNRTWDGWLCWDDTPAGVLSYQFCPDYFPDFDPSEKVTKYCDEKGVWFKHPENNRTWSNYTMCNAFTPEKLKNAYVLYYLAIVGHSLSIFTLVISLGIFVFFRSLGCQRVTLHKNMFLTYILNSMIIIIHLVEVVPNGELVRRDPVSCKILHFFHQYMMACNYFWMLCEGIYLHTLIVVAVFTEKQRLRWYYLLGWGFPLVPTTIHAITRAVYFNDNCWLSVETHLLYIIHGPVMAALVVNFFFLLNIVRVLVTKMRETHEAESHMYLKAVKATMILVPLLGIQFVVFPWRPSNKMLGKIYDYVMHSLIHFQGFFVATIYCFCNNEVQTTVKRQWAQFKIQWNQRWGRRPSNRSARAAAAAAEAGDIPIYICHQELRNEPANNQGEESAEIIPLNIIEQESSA
In words: Human amylin receptor in vitro potency assay (CRE-luciferase reporter, BHK cells).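 Note: BHK cells expressing human calcitonin receptor plus RAMP3 (amylin-3 receptor) with a CRE-luciferase reporter, agonist activity read as luminescence from cAMP-driven transcription, 7-point serial dilutions.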 The conditions noted are these: Tables 4a-4c. It counts as cell-based. (In general: Reporter assays use an easily measured gene product as a stand-in for the process of interest.)
Source text: Activation of hAmyR3 leads to increased cellular concentrations of cAMP. Consequently, transcription is activated by promotors containing multiple copies of the cAMP response element (CRE). It is thus possible to measure hAmyR3 activity using a CRE-luciferase reporter gene introduced into Baby Hamster Kidney (BHK) cells co-expressing the hAmyR3.
The cell line was further transfected with human receptor modifying protein 3 (RAMP3) using standard methods. This turns the human calcitonin receptor into a human amylin-3(a) receptor.
Cells were aliquoted and stored at -180° C. until use.
The plate was incubated over night at 37° C. in 5% CO2. On the day of the assay, cells were washed three times in assay buffer. Serial dilutions (7-fold dilutions, 7 concentrations pr. compound and one well containing only assay buffer) of comparator compounds and GLP-1 receptor-amylin receptor co-agonists were performed in assay buffer often starting from approximately 10-100 nM in 96-well plates and 30 µL of each concentration added to the 384-well assay plate with cells. […] The assay plate was sealed, incubated at room temperature with gentle shaking for 5 minutes followed by 30 minutes incubation without shaking while protected from light. Luminescence was detected on a luminescence plate reader e.g. a Synergy 2 (BioTek).

For “human amylin (KCNTATCATQRLANFLVHSSNNFGAILSSTNVGSNTY; Islet amyloid polypeptide; UniProt P10997 34-70, looked up) [37-amino acid long polypeptide hormone co-secreted with insulin from the pancreatic beta-cell]”, the half-life in series [1] and in series [2] was 15 to 20 min throughout.

B1: H-Aib-EGTFTSDVSSYLEGQAA-K([2-[2-[2-[[2-[2-[2-[[(4S)-4-Carboxy-4-(17-Carboxyheptadecanoylamino)Butanoyl]Amino]Ethoxy]Ethoxy]Acetyl]Amino]Ethoxy]Ethoxy]Acetyl])-EFIAWLVRGRGGQEPGQEP-K([2-[2-[2-[[2-[2-[2- … (peptide)
peptide: H[Aib]EGTFTSDVSSYLEGQAAK([AEEA-AEEA-γGlu-C18 diacid])EFIAWLVRGRGGQEPGQEPK([AEEA-AEEA-γGlu-C18 diacid])CNTATCATQRLAEFLRHSSNNFGPILPPTNVGSNTP-NH2
modifications: ends and bridges not checked
Consider B1, for which, in series [3], the “Ability to agonise the amylin receptor, in words” value is “do not activate the amylin receptor”.

Usually half-life stands for the time in which the quantity being followed falls by half.
